The record followed here is patent publication US20050164920A1 (Pfizer, published 2005).

The experiment has as its target TrkB receptor on rat cerebellar neurons (rat, UniProt Q63604 32-821). The experiment can be described thus: cell-based or functional assay.

Positions of bridges follow the written chain, without caps; N, C: chain ends.

Chain of TrkB receptor on rat cerebellar neurons (Q63604 32-821): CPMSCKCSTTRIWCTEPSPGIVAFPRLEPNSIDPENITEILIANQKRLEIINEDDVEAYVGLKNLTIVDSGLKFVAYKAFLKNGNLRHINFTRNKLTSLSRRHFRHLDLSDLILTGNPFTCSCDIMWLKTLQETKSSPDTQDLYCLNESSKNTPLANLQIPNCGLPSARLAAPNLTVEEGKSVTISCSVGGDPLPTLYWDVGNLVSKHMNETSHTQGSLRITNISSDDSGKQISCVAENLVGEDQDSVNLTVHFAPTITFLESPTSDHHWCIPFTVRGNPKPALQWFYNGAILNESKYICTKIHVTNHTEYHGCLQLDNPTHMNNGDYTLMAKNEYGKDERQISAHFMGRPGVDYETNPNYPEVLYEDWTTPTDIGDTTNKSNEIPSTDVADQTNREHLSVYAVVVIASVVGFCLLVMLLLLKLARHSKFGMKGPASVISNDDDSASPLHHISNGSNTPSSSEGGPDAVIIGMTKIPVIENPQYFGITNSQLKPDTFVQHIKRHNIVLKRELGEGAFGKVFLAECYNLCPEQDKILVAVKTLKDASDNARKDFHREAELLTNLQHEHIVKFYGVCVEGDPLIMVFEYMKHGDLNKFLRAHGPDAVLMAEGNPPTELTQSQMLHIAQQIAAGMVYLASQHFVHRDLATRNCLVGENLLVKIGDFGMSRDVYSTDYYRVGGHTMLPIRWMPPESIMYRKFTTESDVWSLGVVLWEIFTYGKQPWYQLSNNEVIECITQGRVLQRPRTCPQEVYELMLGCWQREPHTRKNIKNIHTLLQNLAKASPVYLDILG

B1: neurotrophin-4 (NT-4/5), recombinant human (ligand)
chain: GVSETAPASRRGELAVCDAVSGWVTDRRTAVDLRGREVEVLGEVPAAGGSPLRQYFFETRCKADNAEEGGPGAGGGGCRGVDRRHWVSECKAKQSYVRALTADAQGRVGWRWIRIDTACVCTLLSRTGRA
On to B1, for which the neurite outgrowth of rat cerebellar neurons, concentration of maximal response fell in the range of 1 to 10 ng/mL.

B2: N-Ac-CSRRGEC-NH2 (peptide)
peptide: Ac-CSRRGEC-NH2
modifications: disulfide 1-7
SMILES: CC(=O)N[C@H]1CSSC[C@@H](C(N)=O)NC(=O)[C@H](CCC(=O)O)NC(=O)CNC(=O)[C@H](CCCNC(=N)N)NC(=O)[C@H](CCCNC(=N)N)NC(=O)[C@H](CO)NC1=O
Take B2: the “inhibition of the BDNF response, fold against the NGF and NT-3 derived peptides” value is about 5 fold.

B3: N-Ac-…-NH2 (peptide)
peptide: Ac-CSRRGELAASRRGELC-NH2
modifications: disulfide 1-16
SMILES: CC(=O)N[C@H]1CSSC[C@@H](C(N)=O)NC(=O)[C@H](CC(C)C)NC(=O)[C@H](CCC(=O)O)NC(=O)CNC(=O)[C@H](CCCNC(=N)N)NC(=O)[C@H](CCCNC(=N)N)NC(=O)[C@H](CO)NC(=O)[C@H](C)NC(=O)[C@H](C)NC(=O)[C@H](CC(C)C)NC(=O)[C@H](CCC(=O)O)NC(=O)CNC(=O)[C@H](CCCNC(=N)N)NC(=O)[C@H](CCCNC(=N)N)NC(=O)[C@H](CO)NC1=O
As for B3, the “EC50 of stimulation of neurite outgrowth” value is about 300 nM.

B4: brain-derived neurotrophic factor (BDNF), recombinant human (ligand)
chain: HSDPARRGELSVCDSISEWVTAADKKTAVDMSGGTVTVLEKVPVSKGQLKQYFYETKCNPMGYTKEGCRGIDKRHWNSQCRTTQSYVRALTMDSKKRIGWRFIRIDTSCVCTLTIKRGR
B4 returned an increase of neurite length against control culture, BDNF at 5 ng/ml of 60 to 70% and a neurite outgrowth of rat cerebellar neurons, concentration of maximal response of 1 to 10 ng/mL.
